Measurements reported in patent US20220316002.

Molecular target: thiolated streptavidin (ProteinMods) (UniProt P22629)
Sequence of UniProt P22629 (P22629 whole entry, looked up): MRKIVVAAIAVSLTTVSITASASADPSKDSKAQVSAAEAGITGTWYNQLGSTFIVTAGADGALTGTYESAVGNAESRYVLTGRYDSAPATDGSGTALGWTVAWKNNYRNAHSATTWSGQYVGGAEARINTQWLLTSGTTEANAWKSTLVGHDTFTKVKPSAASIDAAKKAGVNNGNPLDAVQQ

## Gen II Φ29 DNA polymerase (D12A/D66A, biotinylated Avitag at the N terminus and second Avitag between E279 and D280)
  highest peak of the single-molecule conductance distribution (STM, 4.5 nm gap): The 3 nS peak observed in FIG. 14B is now absent
